The assay has as its target T1, mCherry–Gβ1γ2 dimer (UniProt P62873 1-340; P59768 1-71, 20-carbon geranylgeranyl lipid on the cysteine of the C-terminal CaaX motif (said of Gγ2 in general)).
T1 construct: Gβ1 subunit; cDNA in pcDNA3.1+ from UMR cDNA Resource Center; FP cloned at the N-terminus; Gγ2 subunit; source: HEK 293, transiently co-transfected (mCherry–Gβ1 and Gγ2), in living cells; not shown: mCherry, N-terminal, kept
The assay can be described thus: FRET or BRET; FLIM-FRET in living transiently transfected HEK 293 cells at 37 °C; donor Citrine in Gα, acceptor mCherry on Gβ1 with the appropriate Gγ; efficiency E = 1 − τda/τd from the short lifetime component τ1 (donor alone 2.7 ± 0.1 ns), analysed only at the plasma membrane; GppNHp added to the culture did not change the signal. The note with it: partners not purified. (BRET reads energy transfer from a luciferase to a nearby fluorophore.)

For one molecule, FRET efficiency results are on record in PMC6829862, “Gγ and Gα Identity Dictate a G-Protein Heterotrimer Plasma Membrane Targeting” (Cells, 2019).

B1: Citrine–Gαs (natural protein)
chain: MGCLGNSKTEDQRNEEKAQREANKKIEKQLQKDKQVYRATHRLLLLGAGESGKSTIVKQMRILHVNGFNGNSDGEKATKVQDIKNNLKEAIETIVAAMSNLVPPVELANPENQFRVDYILSVMNVPDFDFPPEFYEHAKALWEDEGVRACYERSNEYQLIDCAQYFLDKIDVIKQADYVPSDQDLLRCRVLTSGIFETKFQVDKVNFHMFDVGGQRDERRKWIQCFNDVTAIIFVVASSSYNMVIREDNQTNRLQEALNLFKSIWNNRWLRTISVILFLNKQDLLAEKVLAGKSKIEDYFPEFARYTTPEDATPEPGEDPRVTRAKYFIRDEFLRISTASGDGRHYCYPHFTCAVDTENIRRVFNDCRDIIQRMHLRQYELL
notes: Gαs subunit (stimulatory G-protein alpha subunit); cDNA in pcDNA3.1+ from UMR cDNA Resource Center; also called wild-type Gαs; loop-tagged Gαs; source: HEK 293, transiently transfected; in living cells (FLIM-FRET) and in cell lysate (pull-down); not shown: Citrine, internal (in place of the loop Glu71-Ser82), kept
Molecule B1 gave an FRET efficiency of 19.7%.
